Assay results reported in patent US20230045791A1 (HIFIBIO, published 2023).
One block for each binder: values may come before it.

Experiments:
[1] = target: T1, human TNFR2 expressed on cells (CHO.hHFB3 / CHO.hTNFR2 cells; primary human T cells) (human, UniProt P20333 23-461); experiment: flow cytometry on CHO cells expressing human TNFR2 (FIG. 12A)
T1 construct: whole, on cells
T1 sequence (looked up): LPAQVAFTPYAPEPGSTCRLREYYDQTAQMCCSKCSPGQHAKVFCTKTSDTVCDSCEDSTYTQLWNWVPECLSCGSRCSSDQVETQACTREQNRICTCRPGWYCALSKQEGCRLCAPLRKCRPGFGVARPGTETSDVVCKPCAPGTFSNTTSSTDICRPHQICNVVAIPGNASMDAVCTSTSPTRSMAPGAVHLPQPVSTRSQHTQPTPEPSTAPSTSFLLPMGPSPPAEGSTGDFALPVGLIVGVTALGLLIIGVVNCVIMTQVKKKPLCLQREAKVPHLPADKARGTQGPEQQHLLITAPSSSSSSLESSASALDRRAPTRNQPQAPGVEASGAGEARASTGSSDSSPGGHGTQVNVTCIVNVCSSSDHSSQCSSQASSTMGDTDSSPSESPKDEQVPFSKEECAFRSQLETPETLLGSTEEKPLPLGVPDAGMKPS

[2] = target: T2, His-tagged recombinant human TNFR1 (human, UniProt P19438 30-211, limits assumed); experiment: ELISA on recombinant hTNFR1-His
T2 construct: also called rhTNFR1; hTNFR1-His; not shown: His tag
T2 sequence (looked up): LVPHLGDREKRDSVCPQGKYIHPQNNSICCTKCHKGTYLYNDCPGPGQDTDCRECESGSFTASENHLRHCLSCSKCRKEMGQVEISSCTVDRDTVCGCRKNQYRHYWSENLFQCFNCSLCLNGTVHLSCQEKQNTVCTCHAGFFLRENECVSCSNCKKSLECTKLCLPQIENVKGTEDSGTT

[3] = target: T3, His-tagged recombinant human TNFR2 (human, UniProt P20333 23-257); experiment: ELISA on recombinant hTNFR2-His (FIG. 14A)
T3 construct: extracellular domain; also called rhTNFR2; hTNFR2-His; not shown: His tag
T3 sequence (looked up): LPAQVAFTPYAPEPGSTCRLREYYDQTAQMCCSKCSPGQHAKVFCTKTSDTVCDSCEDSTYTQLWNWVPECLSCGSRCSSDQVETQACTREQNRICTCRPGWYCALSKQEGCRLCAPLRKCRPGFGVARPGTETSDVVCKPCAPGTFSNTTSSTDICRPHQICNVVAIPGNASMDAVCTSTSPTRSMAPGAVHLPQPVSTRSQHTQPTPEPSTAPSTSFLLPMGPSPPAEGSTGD

[4] = target: T2, His-tagged recombinant human TNFR1; experiment: ELISA, plate coated with 0.1 µg/mL His-tagged recombinant human TNFR1
Description: (§1) Briefly, tissue culture plates were coated with either 0.1 μg/mL of His-tagged recombinant human TNFR2 or TNFR1 overnight at 4° C. The coated plates were then incubated for about 1 hour on ice with 1:3 serial dilutions of each test antibodies, with starting (highest) concentration of about 66 nM antibody. Antibodies bound to the cells were detected by using 1:5000 dilution of HRP-labeled anti-human Fc antibody and TMB substrate. Isotype matched negative control antibody F3, as well as the MR2-1 positive control antibody specific for rhTNFR2 and a positive control antibody specific for rhTNFR1 were also used in this assay. The data, including EC₅₀ values for each antibody, were compiled in FIG. 4A.

[5] = target: T1, human TNFR2 expressed on cells …; experiment: flow cytometry on CHO cells expressing human TNFR2 (CHO.hHFB3), anti-human Fc-AF647 detection
Description: (§2) These monoclonal antibodies were then tested for their abilities to bind human and monkey TNFR2 expressed by CHO cells (CHO.hHFB3 and CHO.mkHFB3 cells respectively). Briefly, about 40,000 CHO.hHFB3 or CHO.mkHFB3 cells were seeded in tissue culture wells, and serial 1:3 dilutions of each test antibodies, with starting (highest) concentration of about 66 nM antibody, were added to each cell type and incubated for about an hour. Antibodies bound to the cells were detected by using 17 nM of anti-human Fc antibody labeled by AF647 (ALEXSA FLUOR® 647 fluorescent dye). An isotype matched negative control antibody was also used in this assay. The data, including EC₅₀ values and Eₘₐₓ for each antibody, were compiled in FIG. 2A.

[6] = target: T4, mouse TNFR2 expressed on CHO cells (mouse, UniProt P25119 23-474); experiment: flow cytometry on CHO cells expressing mouse TNFR2
T4 construct: whole, on cells; also called mouse ortholog
T4 sequence (looked up): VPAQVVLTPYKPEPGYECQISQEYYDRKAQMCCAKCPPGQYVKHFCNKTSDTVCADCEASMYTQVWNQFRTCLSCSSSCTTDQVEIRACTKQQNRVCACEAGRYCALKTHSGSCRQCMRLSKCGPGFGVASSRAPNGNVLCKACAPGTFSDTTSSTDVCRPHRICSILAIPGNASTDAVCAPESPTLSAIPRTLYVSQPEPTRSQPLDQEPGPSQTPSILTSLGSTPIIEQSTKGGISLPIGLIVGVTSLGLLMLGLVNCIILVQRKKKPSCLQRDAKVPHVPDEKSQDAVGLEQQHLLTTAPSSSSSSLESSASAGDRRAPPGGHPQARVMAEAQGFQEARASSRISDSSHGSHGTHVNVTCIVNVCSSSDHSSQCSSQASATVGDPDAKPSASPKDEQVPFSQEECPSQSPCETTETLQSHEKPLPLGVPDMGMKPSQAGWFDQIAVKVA
Description: as §2
The same experiments were also set up to test the ability of the test antibodies to bind CHO cells expressing mouse TNFR2 and the parental CHO cell lines (which may or may not express hamster TNFR2).

[7] = target: T3, His-tagged recombinant human TNFR2; experiment: ELISA, plate coated with 0.1 µg/mL His-tagged recombinant human TNFR2, HRP anti-human Fc
Description: as §1

binding result [1]: binds
binding result [2]: no binding
binding result [3]: binds
B1: HFB3-18hz1-hG1 (humanized monoclonal antibody) (antibody, V domains shown)
VH: EVQLVESGGGLVQPGGSLKLSCAASGFTFSDAWMDWVRQASGKGLEWVGEVRNKANNHATYYAASVKGRFTISRDDSKNTAYLQMNSLKTEDTAVYYCTRSVGGYGTTYWYFDVWGQGTTVTVSS
VL: DIVMTQSPDSLAVSLGERATINCKSSQNLLNSGNQKNYLAWYQQKPGQPPKLLIFGASTRESGVPDRFSGSGSGTDFTLTISSLQAEDVAVYYCQSEHSYPYTFGQGTKLEIKR

binding result [5]: binds
binding result [6]: binds
binding result [7]: binds
B4: HFB3-18-hG1 (mouse monoclonal antibody) (antibody, human IgG1, kappa, V domains shown)
VH: EVKLEESGGGLVQPGGSMKLSCAASGFTFSDAWMDWVRQSPEKGLEWVAEVRNKANNHATYYAESVKGRFTISRDDSKSSVYLQMNSLRAEDTGIYYCTRSVGGYGTTYWYFDVWGTGTTVTVSS
VL: DIVMTQSPSSLSVSAGEKVTMSCKSSQNLLNSGNQKNYLAWYQQKPGQPPKLLIFGASTRESGVPDRFTGSGSGTDFTLTISSVQAEDLAVYYCQSEHSYPYTFGGGTKLEIKR
notes: also called human-mouse chimeric monoclonal antibody HFB3-18
binding result [4]: no binding (tested: highest concentration about 66 nM)

binding result [5]: binds
binding result [7]: binds
B5: HFB3-1-hG1 (mouse monoclonal antibody) (antibody, human IgG1, kappa, V domains shown)
VH: EFQLQQSGPELVKPGASVKISCKASSYSFTDYNMNWVKQSNGKSLEWIGIIFPKYGTTSYNQKFKGKATLTVDQSSSTAYMQLNSLTSEDSAVYYCATDGGTWYFDVWGTGTTVTVSS
VL: QIVLTQSPALMSASPGEKVTMTCSASSSVTYMYWYQQKPRSSPKPWIYLTSNLASGVPARFSGSGSGTSYSLTISSMEAEDAATYYCQQWSSNPPTFGSGTKLEIKR
notes: also called human-mouse chimeric monoclonal antibody HFB3-1; parental HFB3-1-hG1
binding result [4]: no binding (tested: highest concentration about 66 nM)

Second part, the binder before the results:

B2: HFB3-14hz1c-hG1 (humanized monoclonal antibody) (antibody, V domains shown)
VH: QVQLVQSGAEVKKPGSSVKVSCKASGYTFTDYYMNWVRQAPGQGLEWMGDINPNDGGTTYAQKFQGRVTITADESTSTAYMELSSLRSEDTAVYFCAREGNYYAYDVRVWYFDVWGQGTTVTVSS
VL: DIQMTQSPSSLSASVGDRVTITCGASQDIITYLNWYQQKPGKAVKLLIYSTSSLNSGVPSRFSGSGSGTDFTLTISSLQPEDFATYYCQQYSELPYTFGGGTKVELKR
notes: also called HFB3-141c-hG1
binding result [2]: no binding

B3: HFB3-1hz6-hG1 (humanized monoclonal antibody) (antibody, V domains shown)
VH: QVQLVQSGAELKKPGASVKVSCKASSYSFTDYNMNWVRQAPGQSLEWMGIIFPKYGTTSYAQKLQGRVTLTTDTSTSTAYMELRSLRSDDTAVYYCATDGGTWYFDVWGTGTTVTVSS
VL: DIQLTQSPSFLSASVGDRVTITCRASSSVTYMYWYQQKPGKAPKPWIYLTSNLASGVPSRFSGSGSGTEYTLTISSLQPEDAATYYCQQWSSNPPTFGSGTKLEIKR
binding result [1]: binds
binding result [2]: no binding
binding result [3]: binds
